The Immune Epitope Database (IEDB)

Assays:
[1] = target: HLA-B*40:01; assay: IEDB peptide-MHC binding, purified MHC/competitive/radioactivity; filed as Kd, often an IC50 or EC50 that approximates it; ≥ and ≤ were set here for values at or beyond the usual limits of such assays
[2] = target: HLA-B*44:03; assay: as above
[3] = target: HLA-B*45:01; assay: as above
[4] = target: HLA-B*18:01; assay: as above
[5] = target: HLA-B*40:02; assay: as above
[6] = target: HLA-B*44:02; assay: as above
[7] = target: HLA-B*40:01; assay: IEDB peptide-MHC binding, purified MHC/direct/fluorescence; filed as Kd, often an IC50 or EC50 that approximates it; ≥ and ≤ were set here for values at or beyond the usual limits of such assays; conditions: source organism: Influenza A virus (A/SW/MN/12883/00(H1N2))
[8] = target: HLA-B*18:01; assay: as above
[9] = target: HLA-B*44:02; assay: as above
[10] = target: HLA-A*02:02; assay: IEDB peptide-MHC binding, purified MHC/competitive/radioactivity; filed as Kd, often an IC50 or EC50 that approximates it; ≥ and ≤ were set here for values at or beyond the usual limits of such assays
[11] = target: HLA-A*68:02; assay: as above
[12] = target: HLA-A*02:03; assay: as above
[13] = target: HLA-A*02:01; assay: as above
[14] = target: HLA-A*02:06; assay: as above
[15] = target: HLA-B*08:01; assay: IEDB peptide-MHC binding, purified MHC/direct/fluorescence; filed as Kd, often an IC50 or EC50 that approximates it; ≥ and ≤ were set here for values at or beyond the usual limits of such assays; conditions: source organism: Salmonella enterica subsp. enterica serovar Typhimurium str. LT2
[16] = target: HLA-A*26:01; assay: IEDB peptide-MHC binding, purified MHC/competitive/radioactivity; filed as Kd, often an IC50 or EC50 that approximates it; ≥ and ≤ were set here for values at or beyond the usual limits of such assays; conditions: source organism: Dengue virus 4 Philippines/H241/1956
[17] = target: HLA-A*26:01; assay: IEDB peptide-MHC binding, purified MHC/competitive/fluorescence; filed as Kd, often an IC50 or EC50 that approximates it; ≥ and ≤ were set here for values at or beyond the usual limits of such assays; conditions: source organism: Bacillus anthracis str. A0488
[18] = source organism: SARS coronavirus Tor2
[19] = source organism: Mammarenavirus lassaense
[20] = source organism: Influenza A virus (A/SW/MN/12883/00(H1N2))
[21] = source organism: Mammarenavirus machupoense
[22] = source organism: Mammarenavirus guanaritoense
[23] = source organism: Mammarenavirus brazilense
[24] = source organism: Dengue virus 1 Singapore/S275/1990
[25] = source organism: Hepatitis C virus (isolate Th580)
[26] = source organism: Dengue virus 3 Martinique/1243/1999

NECAQVLSEM
Kd [1, 18]: 801 nM
Kd [2, 18]: 121 nM
Kd [3, 18]: 4950 nM
Kd [4, 18]: 177 nM
Kd [5, 18]: 12200 nM
Kd [6, 18]: 253 nM

NENPGGYCL
Kd [1, 19]: 4920 nM
Kd [2, 19]: 259 nM
Kd [3, 19]: 178 nM
Kd [4, 19]: 73.1 nM
Kd [5, 19]: 278 nM
Kd [6, 19]: 152 nM

NEVGARILT
Kd [7]: ≥ 20000 nM
Kd [8, 20]: 658 nM
Kd [9, 20]: ≥ 20000 nM

NLPIYSEEI
Kd ([10]; source organism: Homo sapiens): 77.1 nM
Kd ([11]; source organism: Homo sapiens): 39.3 nM
Kd ([12]; source organism: Homo sapiens): 390 nM
Kd ([13]; source organism: Homo sapiens): 66.6 nM
Kd ([14]; source organism: Homo sapiens): 27.5 nM

PDIGELFGL
Kd [1, 21]: 12700 nM
Kd [2, 21]: ≥ 66600 nM
Kd [3, 21]: ≥ 77700 nM
Kd [4, 21]: ≥ 77500 nM
Kd [5, 21]: ≥ 22100 nM
Kd [6, 21]: ≥ 77900 nM

PEFDWILGWT
Kd [1, 22]: ≥ 69500 nM
Kd [2, 22]: ≥ 28100 nM
Kd [3, 22]: ≥ 70000 nM
Kd [4, 22]: ≥ 70400 nM
Kd [5, 22]: ≥ 23600 nM
Kd [6, 22]: ≥ 70200 nM

QEAYYRARA
Kd [1, 18]: 19900 nM
Kd [2, 18]: 7320 nM
Kd [3, 18]: 15.1 nM
Kd [4, 18]: ≥ 50800 nM
Kd [5, 18]: 1930 nM
Kd [6, 18]: 6160 nM

QEIQLLAAVG
Kd [1, 18]: 2010 nM
Kd [2, 18]: 440 nM
Kd [3, 18]: 121 nM
Kd [4, 18]: 6880 nM
Kd [5, 18]: 18000 nM
Kd [6, 18]: 883 nM

QESLTTTSTA
Kd [1, 18]: 10200 nM
Kd [2, 18]: 682 nM
Kd [3, 18]: 39.6 nM
Kd [4, 18]: ≥ 70500 nM
Kd [5, 18]: 146 nM
Kd [6, 18]: 7110 nM

REIGSLLHGL
Kd [1, 23]: 9190 nM
Kd [2, 23]: 878 nM
Kd [3, 23]: 2750 nM
Kd [4, 23]: ≥ 30400 nM
Kd [5, 23]: 5.84 nM
Kd [6, 23]: 764 nM

RERVNINIV
Kd [1, 18]: 10700 nM
Kd [2, 18]: ≥ 38200 nM
Kd [3, 18]: 265 nM
Kd [4, 18]: ≥ 37800 nM
Kd [5, 18]: 26 nM
Kd [6, 18]: ≥ 35400 nM

RLSSNSRIL
Kd ([13]; source organism: Hepatitis B virus): ≥ 10000 nM

SEHTGKEIV
Kd [8, 24]: 3090 nM
Kd [9, 24]: ≥ 20000 nM

SLLMWITQC
Kd ([13]; source organism: Homo sapiens): ≥ 21100 nM

TEFQSVTFTM
Kd [1, 21]: 1570 nM
Kd [2, 21]: 636 nM
Kd [3, 21]: 13600 nM
Kd [4, 21]: 32.8 nM
Kd [5, 21]: 126 nM
Kd [6, 21]: 1160 nM

TMRLRSEVL
Kd [15]: 22 nM

TTAKEVALL
Kd ([11]; source organism: Dengue virus 4 Philippines/H241/1956): 21.8 nM
Kd [16]: 1900 nM

TVKSFLNFY
Kd [17]: 7.2 nM

VESSSKLWA
Kd [1, 18]: ≥ 42200 nM
Kd [2, 18]: 1600 nM
Kd [3, 18]: 267 nM
Kd [4, 18]: 1250 nM
Kd [5, 18]: 3160 nM
Kd [6, 18]: 3340 nM

VLSDFKTWL
Kd [10, 25]: 263 nM
Kd [11, 25]: ≥ 57400 nM
Kd [12, 25]: 290 nM
Kd [14, 25]: ≥ 29500 nM

WLWYIKIFI
Kd ([13]; source organism: HIV-1 M:B_MN): 141 nM

YDFVLVGPC
Kd [1, 19]: 3340 nM
Kd [2, 19]: 6830 nM
Kd [3, 19]: 7220 nM
Kd [4, 19]: ≥ 24000 nM
Kd [5, 19]: 836 nM
Kd [6, 19]: 1000 nM

YDQLLDSSL
Kd [1, 23]: 9990 nM
Kd [2, 23]: ≥ 78100 nM
Kd [3, 23]: ≥ 77700 nM
Kd [4, 23]: 15400 nM
Kd [5, 23]: 273 nM
Kd [6, 23]: ≥ 26500 nM

YVVIGILTLA
Kd [11, 26]: 123 nM
Kd [14, 26]: 47.4 nM
